Values quoted from earlier work, collected in patent US20220401481A1, “DOSING REGIMENS FOR THE MOBILIZATION OF HEMATOPOIETIC STEM AND PROGENITOR CELLS” (Magenta Therapeutics, Inc., priority 2019, published 2022).

Legend:
[1] = G-CSF; Pulsiper et al. (2009) Blood; cited from earlier work
[2] = system: T cells, B cells and NK cells; conditions: cited from earlier work
[3] = system: neutrophil activation markers (L-selectin, CD11b, CD18, CD66); conditions: 5 days of G-CSF treatment, reported by Falanga et al., Blood 1999; cited from earlier work
[4] = 78 healthy donors mobilized with G-CSF (Chaidos et al, Blood. 2012)
[5] = Chen et al., 2019, G-CSF N = 112+, 1 LP
[6] = Devine et al, 2008, median yield of 1 LP, plerixafor N = 24, G-CSF N = 8

B1: G-CSF: Filgrastim (G-CSF), most common clinical hematopoietic stem cell mobilization protocol, five days (protein, UniProt P09919 31-207, looked up)
Granulocyte …: TPLGPASSLPQSFLLKCLEQVRKIQGDGAALQEKLVSECATYKLCHPEELVLLGHSLGIPWAPLSSCPSQALQLAGCLSQLHSGLFLYQGLLQALEGISPELGPTLDTLQLDVADFATTIWQQMEELGMAPALQPTQGAMPAFASAFQRRAGGVLVASHLQSFLEVSYRVLRHLAQP
modifications: filgrastim
- Tolerability [1]: Majority with bone pain,
- TNC/kg donor weight, Median (range) ([2]; 40 healthy donors mobilized with G-CSF (Singhal et al, BMT. 2000)): 7.2 (3.2-14.0) ×10^8 cells
- Frequency of CD3+ T cells in graft, Median (range) [2, 4]: 45.3 (21.8-75.4) % of CD45+
- Frequency of CD4+ T cells in graft, Median (range) [2, 4]: 29.8 (12.6-56.5) % of CD45+
- Frequency of CD8+ T cells in graft, Median (range) [2, 4]: 11.8 (4.1-29.2) % of CD45+
- Frequency of CD19+ B cells in graft, Median (range) [2, 4]: 10.5 (0.9-34.8) % of CD45+
- Frequency of CD56+ NK cells in graft, Median (range) [2, 4]: 3.2 (0.5-18.4) % of CD45+
- Frequency of Tregs in graft, Median (range) [2, 4]: 3.5 (0.9-8.2) % of CD4+ T cells
- Frequency of iNKT cells in graft, Median (range) [2, 4]: 0.04 (0.00-1.07) % of CD3+
- CD3+ in graft, Median [2, 5]: 2.5e+08 kg⁻¹
- CD4+ in graft, Median [2, 5]: 1.5e+08 kg⁻¹
- CD8+ in graft, Median [2, 5]: 7e+07 kg⁻¹
- CD19+ in graft, Median [2, 5]: 5e+07 kg⁻¹
- CD34+ in graft, Median [2, 5]: 4.2e+06 kg⁻¹
- CD56+ in graft, Median [2, 5]: 1e+07 kg⁻¹
- CD3+ in graft, Median (range) [2, 6]: 1.3 (1.2-6.8) ×10^8/kg
- CD4+ in graft, Median (range) [2, 6]: 1.1 (0.7-3.2) ×10^8/kg
- CD8+ in graft, Median (range) [2, 6]: 0.4 (0.3-3.4) ×10^8/kg
- CD34+ in graft, Median (range) [2, 6]: 4.2 (2.5-18.7) ×10^6/kg
- CD56+ in graft, Median (range) [2, 6]: 0.2 (0.1-0.5) ×10^8/kg
- Fold increase in neutrophil activation markers [3]: ~2.7 fold
